What is called Kd is the free concentration of one partner at which half of the binding sites on the other are occupied at equilibrium, for simple one-to-one binding.

The target of the assay is T1, BS69CC-MYND (BS69 amino acid 480–602, CC-MYND domain) (Homo sapiens, UniProt Q15326).
T1 construct: The BS69 CC-MYND domain (amino acids 480–602) was amplified from pCI-BS69; GST (N, cleaved yes); 6xHis (N, cleaved yes); made in house; host or cells: E. coli Rosetta 2 (DE3) pLysS
T1 sequence (Q15326 480-602): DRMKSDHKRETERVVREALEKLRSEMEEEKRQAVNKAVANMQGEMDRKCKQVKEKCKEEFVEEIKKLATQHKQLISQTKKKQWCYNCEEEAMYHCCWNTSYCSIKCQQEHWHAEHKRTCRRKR
Kind of assay: Isothermal titration calorimetry (ITC) of EBNA2 peptides and polypeptides binding to BS69CC-MYND. The settings on record: 25°C, mean ± SD of 3 independent experiments; for n value (stoichiometry of BS69CC-MYND/EBNA2 binding, monomeric proteins), one-site model: pH 7.5, polypeptides 19 x 2.0 μl injections into 0.1 mM BS69CC-MYND. An excerpt: We hypothesised that the impaired gene activation and growth maintenance properties of type 2 EBNA2 may be the result of increased binding to BS69 as a result of the aspartate to serine amino acid difference adjacent to BS69 binding motif 2. […] We used isothermal titration calorimetry (ITC) to determine the affinity of peptide binding to the C-terminal region of BS69 (amino acid 480–602) comprising the CC-MYND domain that we expressed and purified from E.coli (Fig 1B and 1C). […] The difference in binding between type 1 and type 2 EBNA2 motif 2 peptides could be influenced by both the aspartate to serine change and differences in two other amino acids present in the sequence (Fig 1B and 1C).
The BS69 CC-MYND domain (amino acids 480–602) was amplified from pCI-BS69 containing the full length human BS69 sequence (gift from Dr Stéphane Ansieau) and cloned using SLIC into the SmaI and HindIII sites of pET49b+ to generate a construct expressing an N-terminal GST-6x Histidine tag BS69CC-MYND fusion protein (S2 Table).
Four commercially synthesized peptides (Peptide Synthetics) were used for ITC. These included BS69 binding motif 2 of type 1 EBNA2 (435–445) or type 2 EBNA2 (402–412) and putative BS69 binding motif 3 of type 1 EBNA2 (445–455) or type 2 EBNA2 (412–422).
Frozen protein was quickly thawed using running water and dialysed overnight at 4°C using Slide-A-Lyzer MINI Dialysis Units (Thermo Scientific) against ITC buffer (20mM Tris-HCl, 100mM NaCl and 1mM TCEP, pH 7.5). The next day, protein samples were centrifuged at 13000 rpm for 10 mins at 4 °C and the concentration was determined by NanoDrop spectroscopy (NanoDrop Technologies) with their respective molecular weights and extinction coefficients. EBNA2 peptides (1mM) and polypeptides (type 1, 0.3 mM and type 2, 0.6 mM) were titrated against BS69CC-MYND (0.1mM) at 25°C using a MicroCalTM iTC200 instrument (Malvern). For peptides, 13 x 3.0 μl injections were used for titration. For EBNA2 polypeptides 19 x 2.0 μl or 29 x 1.3 μl injections were used for titration. ITC data were corrected for non-specific heat and analysed using MicroCal Origin 7.0. The experiments were performed in triplicate alongside a control experiment with no BS69CC-MYND (buffer only in the cell). All polypeptides were used within 24 hrs of dialysis into ITC buffer.
On the technique in general: Isothermal titration calorimetry measures the heat released or taken up as one component is titrated into another.

[1] abbreviates: pH 7.5, peptides 13 injections, polypeptides 19 injections.

For the substance “T1 EBNA2_381-445: type 1 EBNA2 polypeptide, amino acids 381–445, expressed and purified from E.coli”, the “n value (stoichiometry of BS69CC-MYND/EBNA2 binding, monomeric proteins), one-site model” value was found to be 0.42 ± 0.02. In addition, the equilibrium dissociation constant (Kd) (20mM Tris-HCl, 100mM NaCl, 1mM TCEP, pH 7.5, EBNA2 titrated into 0.1 mM BS69CC-MYND, peptides 1 mM, 13 injections, n fixed to 1, polypeptides 19 x 2.0 μl injections, read-out: KD (dissociation constant), one-site (one event) binding model) was found to be 0.95 µM. Moreover, under setting [1], the “-TΔS, one-site model” value is given as 18.4 ± 0.46 kcal/mol; the “ΔG, one-site model” value is -8.22 ± 0.08 kcal/mol; the “ΔH, one-site model” value is recorded as -26.6 ± 0.53 kcal/mol. Besides, the “n value (stoichiometry of BS69CC-MYND/EBNA2 binding, monomeric proteins), one-site model” value (listed as type 1 EBNA2_381-445) stood at 0.42.
With YPPSIDPADLD [T1 EBNA2 motif 3], the “KD (dissociation constant), one-site (one event) binding model” value (20mM Tris-HCl, 100mM NaCl, 1mM TCEP, pH 7.5, EBNA2 titrated into 0.1 mM BS69CC-MYND, peptides 1 mM, 13 injections, n fixed to 1, polypeptides 19 x 2.0 μl injections) was “not able to detect any binding”.

The values are drawn from publication PMC6638984, “Increased association between Epstein-Barr virus EBNA2 from type 2 strains and the transcriptional repressor BS69 restricts EBNA2 activity” (PLoS Pathogens, 2019).
